Data published in patent US11608380B2, “Anti-EGFRvIII antibodies and uses thereof” (REGENERON PHARMACEUTICALS, INC., priority 2014, dated 2023).

Key:
HEK293 cells = experiment: FACS cell binding selectivity; type: cell-based; settings: directly labeled (ALEXA FLUOR 488) antibodies, 10 μg/ml
Experimental: To determine the specificity of the anti-EGFRvIII mAbs, their binding to HEK293, HEK293 cells expressing EGFRvIII (HEK293/EGFRvIII) and A431 cells, was analyzed by fluorescence activated cell sorting (FACS). HEK293/EGFRvIII cells were prepared by transfecting HEK293 cells with neomycin resistant DNA vectors constitutively expressing full-length hEGFRvIII (SEQ ID NO:147) using LIPOFECTAMINE™ 2000 transfection reagent (INVITROGEN™). At two days post-transfection, cells were placed under G418 selection for approximately two weeks. Populations positively expressing EGFRvIII were isolated via fluorescence activated cell sorting (FACS). The HEK293 cells expressing ˜3×10^6 copies of EGFRvIII per cell were used in the experiment. Briefly, the anti-EGFRvIII antibodies at 10 μg/ml were incubated with cells for 30 minutes at room temperature, washed, incubated with secondary antibody, i.e., phycoerythrin (PE)-labeled goat F(ab′)2 against human IgG (cat #109-116-170, Jackson ImmunoResearch Laboratories), followed by a final wash before FACS analysis. In another set of experiment, anti-EGFRvIII antibodies were directly conjugated via their lysine residues with the fluorescent dye, ALEXA FLUOR® 488 Dye (INVITROGEN™), thereby eliminating the step using the secondary antibody. […] Controls I, II, III, IV and V are described above. MFI: Mean Fluorescence Intensity.

EGFRvIII-mFc = type: binding, human
Experimental: (§1) Measurements were conducted on a T100 BIACORE™ instrument. […] In the receptor-capture format, either EGFRvIII-mFc or EGFR-mFc, was captured on the BIACORE™ chip and the respective antibodies flowed over. Kinetic association (ka) and dissociation (kd) rate constants were determined by processing and fitting the data to a 1:1 binding model using Scrubber 2.0 curve fitting software. Binding dissociation equilibrium constants (KD) and dissociative half-lives (t1/2) were calculated from the kinetic rate constants as: KD (M)=kd/ka; and t1/2 (min)=ln 2/(60*kd).

EGFR-mFc = EGFR-mFc (Homo sapiens, UniProt P00533); experiment: SPR (BIACORE) binding kinetics, receptor-capture format; settings: 37° C., EGFR-mFc captured, NB=no binding
Experimental: as §1

EGFRvIII-mmh = EGFRvIII-mmh (Homo sapiens, UniProt P00533, DELINS30-297G); experiment: Antibody specificity by ELISA; settings: ELISA binding, plate coated with EGFRvIII-mmh
Experimental: (§2) To further characterize anti-hEGFRvIII mAbs, their binding specificity was examined by ELISA. […] For the junctional peptides that were linked to biotin either at C-terminal (SEQ ID NO:149) or N-terminal (SEQ ID NO:150) via a linker, plates were pre-coated with avidin. Also, coated was an irrelevant peptide (control peptide) with or without biotin at its N-terminal. Anti-EGFRvIII antibodies as well as an isotype control antibody were added to coated plates and allowed to incubate for 1 hour at 25° C. The plates were then washed and bound anti-EGFRvIII mAbs were detected with anti-human Fc antibodies conjugated with horse-radish peroxidase (HRP). […] Data analysis used a sigmoidal dose-response model within PRISM™ software.

N-term biotin J-peptide = N-term biotin J-peptide (Homo sapiens, UniProt P00533, DELINS30-297G); experiment: Antibody specificity by ELISA; settings: ELISA binding, avidin pre-coated plates
Experimental: as §2

[1] = molecular target: junctional peptide (J-peptide) (Homo sapiens, UniProt P00533, DELINS30-297G); experiment: Antibody specificity by ELISA; settings: ELISA binding
Experimental: as §2

EGFR-mmh = EGFR-mmh (Homo sapiens, UniProt P00533); experiment: Antibody specificity by ELISA; settings: read-out: EC50 EGFR-mmh (25° C.), ELISA binding, plate coated with EGFR-mmh
Experimental: as §2

C-term biotin J-peptide = C-term biotin J-peptide (Homo sapiens, UniProt P00533, DELINS30-297G); experiment: Antibody specificity by ELISA; settings: ELISA binding, avidin pre-coated plates
Experimental: as §2

[2] = tested on: N-term Biotin control peptide; experiment: Antibody specificity by ELISA; settings: ELISA binding, irrelevant peptide with N-terminal biotin
Experimental: (§3) To further characterize anti-hEGFRvIII mAbs, their binding specificity was examined by ELISA. […] For the junctional peptides that were linked to biotin either at C-terminal (SEQ ID NO:149) or N-terminal (SEQ ID NO:150) via a linker, plates were pre-coated with avidin. Also, coated was an irrelevant peptide (control peptide) with or without biotin at its N-terminal. Anti-EGFRvIII antibodies as well as an isotype control antibody were added to coated plates and allowed to incubate for 1 hour at 25° C. The plates were then washed and bound anti-EGFRvIII mAbs were detected with anti-human Fc antibodies conjugated with horse-radish peroxidase (HRP). Plates were developed with a tetra-methyl-benzidine (TMB) substrate solution to produce a colorimetric reaction and neutralized with sulfuric acid before reading absorbance at 450 nm on a VICTOR™ X5 plate reader. Data analysis used a sigmoidal dose-response model within PRISM™ software. […] NT: Not tested. Controls I-III: As described above.

Control peptide = experiment: Antibody specificity by ELISA; settings: ELISA binding, irrelevant peptide
Experimental: as §3

[3] = 37° C., receptor-capture, EGFRvIII-mFc captured

B1: H1H1915N: human IgG1 Fc anti-EGFRvIII antibody with variable domains 1915; HCVR/LCVR SEQ ID NOs 82/90 (antibody, V domains shown)
VH: QVQLVESGGGVVQPGRSLRLSCAASGFTFSAYAMHWVRQAPGKGLEWVAVIWYDGSNKNYADSVKGRFTVSRDNSKNTLYLEMNSLRAEDTAVYYCARDLMVGVTNYWGQGTLVTVST
VL: DVVMTQSPLSLPVALGQPASISCRSSQSLVYTDGNTYLNWFHQRPGQSPRRLIYKVSNRDSGVPDRFTGSGSGTDFTLKISRVEAEDVGVFYCMQGSHWPPYTFGQGTKLEIK
modifications: human IgG1 Fc
For B1, the “Parental HEK293 MFI” value (HEK293 cells) was 3461, the ka (EGFRvIII-mFc; [3]) was 100000 M⁻¹ s⁻¹ and the kd (EGFRvIII-mFc; [3]) was 0.000328 s⁻¹. The “selectivity for EGFRvIII over wild-type EGFR” value (EGFRvIII-mFc; receptor capture format (Table 4)) was “greatest selectivity”, the ka (EGFR-mFc) was 43500 M⁻¹ s⁻¹ and the kd (EGFR-mFc) was 0.00801 s⁻¹. The “EC50 EGFRvIII-mmh (25° C.)” value (EGFRvIII-mmh) was “strong binding”, the EC50 (N-term biotin J-peptide) was greater than 10 nM and the EC50 [1] was greater than 10 nM. It also gave an EC50 (EGFR-mmh) greater than 10 nM, an EC50 (C-term biotin J-peptide) greater than 10 nM and an EC50 [2] greater than 10 nM. The EC50 (Control peptide) was greater than 10 nM.
